Laboratory results from PMC3087300 (Bioorganic & medicinal chemistry, 2009).
Where two headings read alike, the source gives them in different places.

Molecular target: PSA (Homo sapiens, UniProt P07288)
Sequence (P07288 25-261): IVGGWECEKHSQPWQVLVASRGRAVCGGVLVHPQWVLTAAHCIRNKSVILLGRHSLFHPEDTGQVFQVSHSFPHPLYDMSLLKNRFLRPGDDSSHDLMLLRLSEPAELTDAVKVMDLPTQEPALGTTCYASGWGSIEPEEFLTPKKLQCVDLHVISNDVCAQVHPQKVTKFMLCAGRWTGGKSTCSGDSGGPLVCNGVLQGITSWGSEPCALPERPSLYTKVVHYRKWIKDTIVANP

Substance: (Re) SAAC-SSQn(boro)L [Compound 47]
- Ki (P2-P3 screen boronic acids and PSA imaging agents, Table 2): 28.4 ± 2.1 nM
- Ki (read-out: Ki for PSA, boronic acid inhibitors): 28 nM
